Six molecules from patent US20260167721A1 (ABLEXIS, published 2026) can be followed below.

Assay [1] concerns the target T1, CD3 on human donor PBMC / Pan T effector cells (human, UniProt P07766 23-207; P09693 23-182; P04234 22-171; P20963 22-164). The assay is described as follows: cell-based or functional assay.
Assay [2] has as its target T1, CD3 on human donor PBMC / Pan T …. Nature of the assay: cell-based or functional assay. This is another data set of the same source.

T1 sequence (P07766 23-207, chain 1 of 4): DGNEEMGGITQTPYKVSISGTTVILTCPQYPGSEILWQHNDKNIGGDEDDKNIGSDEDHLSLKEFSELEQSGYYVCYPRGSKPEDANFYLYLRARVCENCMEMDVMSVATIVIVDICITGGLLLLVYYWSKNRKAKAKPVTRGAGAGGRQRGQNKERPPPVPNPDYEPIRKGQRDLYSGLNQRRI
T1 sequence (P09693 23-182, chain 2 of 4): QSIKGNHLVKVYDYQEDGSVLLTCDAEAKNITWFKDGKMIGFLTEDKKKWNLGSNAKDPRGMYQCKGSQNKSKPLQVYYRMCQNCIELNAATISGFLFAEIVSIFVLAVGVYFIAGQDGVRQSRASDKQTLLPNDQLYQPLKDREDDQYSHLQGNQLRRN
T1 sequence (P04234 22-171, chain 3 of 4): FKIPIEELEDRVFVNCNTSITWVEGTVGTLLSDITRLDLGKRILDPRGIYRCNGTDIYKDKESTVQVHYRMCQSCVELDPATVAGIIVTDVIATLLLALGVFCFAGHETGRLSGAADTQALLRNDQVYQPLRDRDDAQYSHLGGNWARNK
T1 sequence (P20963 22-164, chain 4 of 4): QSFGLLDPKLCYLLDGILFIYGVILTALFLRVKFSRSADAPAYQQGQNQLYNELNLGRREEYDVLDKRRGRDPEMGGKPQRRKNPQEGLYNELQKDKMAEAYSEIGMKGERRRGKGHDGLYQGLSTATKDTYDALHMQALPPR

B1: CD3 × CD33-BspAb51 (bispecific antibody)
chain 1: not shown
chain 2: EVQLVQSGAEVKKPGSSVKVSCKASGYTITDSNIHWVRQAPGQSLEWIGYIYPYNGGTDYNQKFKNRATLTVDNPTNTAYMELSSLRSEDTAFYYCVNGNPWLAYWGQGTLVTVSSASTKGPSVFPLAPSSKSTSGGTAALGCLVKDYFPEPVTVSWNSGALTSGVHTFPAVLQSSGLYSLSSVVTVPSSSLGTQTYICNVNHKPSNTKVDKRVEPKSCDKTHTCPPCPAPEFEGGPSVFLFPPKPKDTLMISRTPEVTCVVVDVSHEDPEVKFNWYVDGVEVHNAKTKPREEQYNSTYRVVSVLTVLHQDWLNGKEYKCKVSNKALPASIEKTISKAKGQPREPQVCTLPPSREEMTKNQVSLSCAVKGFYPSDIAVEWESNGQPENNYKTTPPVLDSDGSFFLVSKLTVDKSRWQQGNVFSCSVMHEALHNRFTQKSLSLSPGK
chain 3: DIQLTQSPSTLSASVGDRVTITCRASESLDNYGIRFLTWFQQKPGKAPKLLMYAASNQGSGVPSRFSGSGSGTEFTLTISSLQPDDFATYYCQQTKEVPWSFGQGTKVEVKRTVAAPSVFIFPPSDEQLKSGTASVVCLLNNFYPREAKVQWKVDNALQSGNSQESVTEQDSKDSTYSLSSTLTLSKADYEKHKVYACEVTHQGLSSPVTKSFNRGEC
Regarding B1, in assay [1], the “Cytokine Release Assay (TNFα) Donor 0 EC50” value worked out at 0.203 nM, the “Cytokine Release Assay (TNFα) Donor 0 gMFI max” value was determined as 51700 gMFI, the “Cytokine Release Assay (TNFα) Donor 1 EC50” value was found to be 0.535 nM and the “Cytokine Release Assay (TNFα) Donor 1 gMFI max” value stood at 6200 gMFI. Besides, in assay [1], the “Cytokine Release Assay (TNFα) Donor 2 EC50” value was determined as 0.18 nM, the “Cytokine Release Assay (TNFα) Donor 2 gMFI max” value was found to be 14800 gMFI, the “Cytokine Release Assay (TNFα) Donor 3 EC50” value was found to be 0.166 nM and the “Cytokine Release Assay (TNFα) Donor 3 gMFI max” value worked out at 36200 gMFI. Further, in assay [2], the “Cytokine Release Assay (IL2) Donor 0 EC50” value is 0.181 nM, the “Cytokine Release Assay (IL2) Donor 0 gMFI max” value came out at 105000 gMFI, the “Cytokine Release Assay (IL2) Donor 1 EC50” value turned out to be 0.529 nM and the “Cytokine Release Assay (IL2) Donor 1 gMFI max” value worked out at 37800 gMFI. Also, in assay [2], the “Cytokine Release Assay (IL2) Donor 2 EC50” value was 0.205 nM, the “Cytokine Release Assay (IL2) Donor 2 gMFI max” value is 27300 gMFI, the “Cytokine Release Assay (IL2) Donor 3 EC50” value came out at 0.0995 nM and the “Cytokine Release Assay (IL2) Donor 3 gMFI max” value amounted to 156000 gMFI.

B2: CD3 × CD33-BspAb73 (bispecific antibody)
chain 1: EVQLVESGGGLVKPGGSLRLSCAASGFTFSSYSMNWVRQAPGKCLEWVSSVNSRGSYIYYADSVKGRFTISRDNAKDSLYLQMNSLRADDTAVYYCARDRRELLLDYWGQGTLVTVSSGGGGSGGGGSGGGGSGGGGSSYELTQPPSVSVSPGQTARITCSGDALPKKYAYWYQQKSGQAPVLVIYEDSKRPSGIPERFSGSSSGTMATLTISGAQVEDEADYYCYSTDSSGNHSWVFGCGTKLTVLDKTHTCPPCPAPEFEGGPSVFLFPPKPKDTLMISRTPEVTCVVVDVSHEDPEVKFNWYVDGVEVHNAKTKPREEQYNSTYRVVSVLTVLHQDWLNGKEYKCKVSNKALPASIEKTISKAKGQPREPQVYTLPPCREEMTKNQVSLWCLVKGFYPSDIAVEWESNGQPENNYKTTPPVLDSDGSFFLYSKLTVDKSRWQQGNVFSCSVMHEALHNHYTQKSLSLSPGK
chain 2: B1 chain 2
chain 3: B1 chain 3
Consider B2, for which, in assay [1], the “Cytokine Release Assay (TNFα) Donor 0 EC50” value was 0.759 nM, the “Cytokine Release Assay (TNFα) Donor 0 gMFI max” value is 28000 gMFI, the “Cytokine Release Assay (TNFα) Donor 1 gMFI max” value came to 4400 gMFI and the “Cytokine Release Assay (TNFα) Donor 2 EC50” value amounted to 1.01 nM. In assay [1], the “Cytokine Release Assay (TNFα) Donor 2 gMFI max” value is 14300 gMFI, the “Cytokine Release Assay (TNFα) Donor 3 EC50” value is 0.653 nM and the “Cytokine Release Assay (TNFα) Donor 3 gMFI max” value was found to be 24200 gMFI. In assay [2], the “Cytokine Release Assay (IL2) Donor 0 EC50” value came to 0.104 nM, the “Cytokine Release Assay (IL2) Donor 0 gMFI max” value was 29000 gMFI, the “Cytokine Release Assay (IL2) Donor 1 EC50” value was 0.373 nM and the “Cytokine Release Assay (IL2) Donor 1 gMFI max” value is 15900 gMFI. Further, in assay [2], the “Cytokine Release Assay (IL2) Donor 2 EC50” value is 26.5 nM, the “Cytokine Release Assay (IL2) Donor 2 gMFI max” value stood at 32500 gMFI, the “Cytokine Release Assay (IL2) Donor 3 EC50” value turned out to be 0.24 nM and the “Cytokine Release Assay (IL2) Donor 3 gMFI max” value worked out at 42900 gMFI.

B3: CD3 × CD33-BspAb72 (bispecific antibody)
chain 1: EVQLVESGGGLVQPGGSLRLSCAASGFTFSSYSMNWVRQAPGKCLEWVSYISSSSSTIYYADSVKGRFTISRDNAKNSLYLQMNSLRDEDTAVYYCARDGPVDYGMDVWGQGTTVTVSSGGGGSGGGGSGGGGSGGGGSSYELTQPPSVSVSPGQTARITCSGDALPKQYTYWYQQKPGQAPVLVIYKDSERPSGIPERFSGSSSGTTVTLTISGVQAEDEADYYCQSADSSGTYRVFGCGTKLTVLDKTHTCPPCPAPEFEGGPSVFLFPPKPKDTLMISRTPEVTCVVVDVSHEDPEVKFNWYVDGVEVHNAKTKPREEQYNSTYRVVSVLTVLHQDWLNGKEYKCKVSNKALPASIEKTISKAKGQPREPQVYTLPPCREEMTKNQVSLWCLVKGFYPSDIAVEWESNGQPENNYKTTPPVLDSDGSFFLYSKLTVDKSRWQQGNVFSCSVMHEALHNHYTQKSLSLSPGK
chain 2: B1 chain 2
chain 3: B1 chain 3
B3: in assay [1], the “Cytokine Release Assay (TNFα) Donor 0 gMFI max” value came out at 23400 gMFI, the “Cytokine Release Assay (TNFα) Donor 1 gMFI max” value was 4410 gMFI, the “Cytokine Release Assay (TNFα) Donor 2 EC50” value is 16.9 nM and the “Cytokine Release Assay (TNFα) Donor 2 gMFI max” value worked out at 8010 gMFI. In addition, in assay [1], the “Cytokine Release Assay (TNFα) Donor 3 EC50” value was 42.5 nM and the “Cytokine Release Assay (TNFα) Donor 3 gMFI max” value came to 11200 gMFI. For the same molecule, in assay [2], the “Cytokine Release Assay (IL2) Donor 0 EC50” value stood at 8.21 nM, the “Cytokine Release Assay (IL2) Donor 0 gMFI max” value worked out at 23000 gMFI, the “Cytokine Release Assay (IL2) Donor 1 EC50” value is 4.28 nM and the “Cytokine Release Assay (IL2) Donor 1 gMFI max” value came to 17300 gMFI. In addition, in assay [2], the “Cytokine Release Assay (IL2) Donor 2 EC50” value was determined as 2.16 nM, the “Cytokine Release Assay (IL2) Donor 2 gMFI max” value was found to be 16400 gMFI, the “Cytokine Release Assay (IL2) Donor 3 EC50” value was found to be 8.36 nM and the “Cytokine Release Assay (IL2) Donor 3 gMFI max” value came out at 26300 gMFI.

B4: CD3 × CD33-BspAb66 (bispecific antibody, human IgG1, kappa)
chain: EVQLVESGGGLVQPGRSLRLSCAASGFTFDDYAMHWVRQAPGKGLEWVSGISWNSGSIGYADSVKGRFTISRDNAKNSLYLQMNSLRAEDTALYYCAKDSRGYGDYRLGGAYWGQGTLVTVSSGGGGSGGGGSGGGGSGGGGSEIVMTQSPATLSVSPGERATLSCRASQSVSSNLAWYQQKPGQAPRLLIYGASTRATGIPARFSGSGSGTEFTLTISSLQSEDFAVYYCQQYNNWPWTFGQGTKVEIKTSGPGGPDKTHTCPPCPAPEFEGGPSVFLFPPKPKDTLMISRTPEVTCVVVDVSHEDPEVKFNWYVDGVEVHNAKTKPREEQYNSTYRVVSVLTVLHQDWLNGKEYKCKVSNKALPASIEKTISKAKGQPREPQVYTLPPCREEMTKNQVSLWCLVKGFYPSDIAVEWESNGQPENNYKTTPPVLDSDGSFFLYSKLTVDKSRWQQGNVFSCSVMHEALHNHYTQKSLSLSPGK
heavy: B1 chain 2
light: B1 chain 3
For B4, in assay [1], the “Cytokine Release Assay (TNFα) Donor 0 EC50” value is 20.1 nM, the “Cytokine Release Assay (TNFα) Donor 0 gMFI max” value was 55800 gMFI, the “Cytokine Release Assay (TNFα) Donor 1 gMFI max” value worked out at 5360 gMFI and the “Cytokine Release Assay (TNFα) Donor 2 EC50” value turned out to be 28.1 nM. In addition, in assay [1], the “Cytokine Release Assay (TNFα) Donor 2 gMFI max” value amounted to 14000 gMFI, the “Cytokine Release Assay (TNFα) Donor 3 EC50” value is 10.8 nM and the “Cytokine Release Assay (TNFα) Donor 3 gMFI max” value came to 28600 gMFI. In assay [2], the “Cytokine Release Assay (IL2) Donor 0 EC50” value came out at 44.9 nM, the “Cytokine Release Assay (IL2) Donor 0 gMFI max” value turned out to be 84700 gMFI, the “Cytokine Release Assay (IL2) Donor 1 EC50” value came to 40.1 nM and the “Cytokine Release Assay (IL2) Donor 1 gMFI max” value stood at 31100 gMFI. Moreover, in assay [2], the “Cytokine Release Assay (IL2) Donor 2 EC50” value is 38.7 nM, the “Cytokine Release Assay (IL2) Donor 2 gMFI max” value is 33700 gMFI, the “Cytokine Release Assay (IL2) Donor 3 EC50” value stood at 49.8 nM and the “Cytokine Release Assay (IL2) Donor 3 gMFI max” value was 95000 gMFI.

B5: CD3 × CD33-BspAb85 (bispecific antibody)
chain 1: EVQLVESGGGLVKPGGSLRLSCAASGFTFSSYSMNWVRQAPGKCLEWVSSISRSSGYIFYADSVKGRFTISRDNAKNSLYLQMNSLRAEDTAVYYCVRERVGAGFDYWGQGTLVTVSSGGGGSGGGGSGGGGSGGGGSNFMLTQPHSVSESPGKTVAISCTRSSGSIASNYVQWYQQRPGSSPTAVIYEDNQRPSGVPDRFSGSIDSSSNSAFLTISGLKTEDEADYYCQSYDSSNRVFGCGTKLTVLDKTHTCPPCPAPEFEGGPSVFLFPPKPKDTLMISRTPEVTCVVVDVSHEDPEVKFNWYVDGVEVHNAKTKPREEQYNSTYRVVSVLTVLHQDWLNGKEYKCKVSNKALPASIEKTISKAKGQPREPQVYTLPPCREEMTKNQVSLWCLVKGFYPSDIAVEWESNGQPENNYKTTPPVLDSDGSFFLYSKLTVDKSRWQQGNVFSCSVMHEALHNHYTQKSLSLSPGK
chain 2: B1 chain 2
chain 3: B1 chain 3
Turning to B5, in assay [1], the “Cytokine Release Assay (TNFα) Donor 0 EC50” value is 0.114 nM, the “Cytokine Release Assay (TNFα) Donor 0 gMFI max” value amounted to 44800 gMFI, the “Cytokine Release Assay (TNFα) Donor 1 EC50” value stood at 0.647 nM and the “Cytokine Release Assay (TNFα) Donor 1 gMFI max” value was found to be 5490 gMFI. Further, in assay [1], the “Cytokine Release Assay (TNFα) Donor 2 EC50” value stood at 0.0497 nM, the “Cytokine Release Assay (TNFα) Donor 2 gMFI max” value was 18400 gMFI, the “Cytokine Release Assay (TNFα) Donor 3 EC50” value worked out at 0.0635 nM and the “Cytokine Release Assay (TNFα) Donor 3 gMFI max” value was 26600 gMFI. Also, in assay [2], the “Cytokine Release Assay (IL2) Donor 0 EC50” value was 0.121 nM, the “Cytokine Release Assay (IL2) Donor 0 gMFI max” value worked out at 33000 gMFI, the “Cytokine Release Assay (IL2) Donor 1 EC50” value stood at 0.442 nM and the “Cytokine Release Assay (IL2) Donor 1 gMFI max” value was found to be 23100 gMFI. Also, in assay [2], the “Cytokine Release Assay (IL2) Donor 2 EC50” value is 0.222 nM, the “Cytokine Release Assay (IL2) Donor 2 gMFI max” value was 32600 gMFI, the “Cytokine Release Assay (IL2) Donor 3 EC50” value is 0.0926 nM and the “Cytokine Release Assay (IL2) Donor 3 gMFI max” value is 49700 gMFI.

B6: CD3 × CD33-BspAb52 (bispecific antibody)
chain 1: not shown
chain 2: B1 chain 2
chain 3: B1 chain 3
Regarding B6, in assay [1], the “Cytokine Release Assay (TNFα) Donor 0 gMFI max” value stood at 5510 gMFI, the “Cytokine Release Assay (TNFα) Donor 1 gMFI max” value was 4510 gMFI, the “Cytokine Release Assay (TNFα) Donor 2 EC50” value worked out at 1.35 nM and the “Cytokine Release Assay (TNFα) Donor 2 gMFI max” value was 4800 gMFI. In assay [1], the “Cytokine Release Assay (TNFα) Donor 3 EC50” value was 18.6 nM and the “Cytokine Release Assay (TNFα) Donor 3 gMFI max” value was 5310 gMFI. For the same molecule, in assay [2], the “Cytokine Release Assay (IL2) Donor 0 EC50” value was determined as 141 nM, the “Cytokine Release Assay (IL2) Donor 0 gMFI max” value was 17200 gMFI, the “Cytokine Release Assay (IL2) Donor 1 EC50” value came to 10.7 nM and the “Cytokine Release Assay (IL2) Donor 1 gMFI max” value was determined as 14500 gMFI. In addition, in assay [2], the “Cytokine Release Assay (IL2) Donor 2 gMFI max” value was found to be 12800 gMFI, the “Cytokine Release Assay (IL2) Donor 3 EC50” value came out at 3.87 nM and the “Cytokine Release Assay (IL2) Donor 3 gMFI max” value stood at 18100 gMFI.
